Measured values as given in PMC8046733 (Immunity, 2021).
Numbering of substitutions follows the chain as printed. Names may count otherwise.

B1: RM11-43 heavy-chain variant I52A (antibody, V domains shown)
VH: QVQLVQSGAEVKKPGASVKLSCKASGFTFRIYAISWVRQAPGQGLEWMGEIAPLGGITNYAQKFQGRVTITADTSTSTAYMELSSLRSEDTAVYYCARGETKMITVLAGTTGGGLDSWGQGTLVTVSS
VL: DIQMTQSPSSLSASVGDKVTITCHASQGISSWLAWYQQKPGKAPKPLIYAASSLQSGVPSRFSGGGSGADYTLTISSLQPEDFATYYCQQYDDLPRTFGQGTKVEIK
B2: RM11-43 heavy-chain variant L53A (antibody, V domains shown)
VH: B1 VH with A52I, L54A
VL: B1 VL
B3: RM11-43 heavy-chain variant I56A (antibody, V domains shown)
VH: B1 VH with A52I, I57A
VL: B1 VL
B4: RM2-01 heavy-chain variant I51A (antibody, V domains shown)
VH: QVQLVQSGAEVKKPGASVKLSCKASGFTFRIYAISWVRQAPGQGLEWMGEAVPLGGITNYAQNFQGRAAITADTSINTAYMELSSLRSDDTAVYYCARVRTALVGPREGIFDFWGQGVLVTVSS
VL: DIQMTQSPSSLSASVGDRVSITCRASQTISTYLAWYQQKPGKVPKLLIYTASTLETGVPSRFSGSGSGTEFTLTISSLQPEDFATYYCQQHDSHPYSFGQGTKVEIK
B5: RM2-01 heavy-chain variant I56A (antibody, V domains shown)
VH: B4 VH with A51I, I57A
VL: B4 VL
B6: RM2-01 heavy-chain variant P52aA (antibody, V domains shown)
VH: B4 VH with A51I, P53A
VL: B4 VL

What follows are binders tested against HCV-1 E1E2 (autologous strain) (Hepatitis C virus genotype 1a, strain …, UniProt P26664, strain) (assay: ELISA).

| Binder | binding result |
| --- | --- |
| B1 | binds |
| B2 | binds |
| B3 | binds |
| B4 | binds |
| B5 | binds |
| B6 | binds |
